# Assay results published in patent US6660492B1, “Chimeric serine proteases” (Boehringer Mannheim GmbH, priority 1997, dated 2003).
# Key:
# Format in all cases: biochemical
# Settings in all cases: pH 8.0, RT, 405 nm
# [1] = Activity determination and kinetic constants with chromogenic substrate Chromozym PK
# Description: (§1) The activity of the renatured activated rFXTa proteases was determined with the chromogenic substrates Chromozym® X (N-methoxycarbonyl-D-Nle-Gly-Arg-pNA, Boehringer Mannheim GmbH, Mannheim, Cat. No. 789763), Chromozym® U (Bz-β-Ala-Gly-Arg-pNA, Boehringer Mannheim GmbH, Mannheim, Cat. No.836583), Chromozym® PK (Bz-Pro-Phe-Arg-pNA, Boehringer Mannheim GmbH, Mannheim, Cat. No. 378445) and Chromozym® TH (Tosyl-Gly-Pro-Arg-pNA, Boehringer Mannheim GmbH, Mannheim, Cat. No. 838268) in comparison with recombinant rFXa (rFX-EGF2-AP-CD; preparation and description see PCT/EP97/03027) and native human trypsin (Sigma-Aldrich Chemie GmbH, Deisenhofen, Germany, Cat. No. T6424). Abbreviations: Bz, benzoyl; pNA, p-nitroaniline.
# (§2) 10-100 μl sample was filled up to 200 μl with 190-100 μl 50 mmol/l Tris-HCl, 150 mmol/l NaCl, 5 mmol/l CaCl2, 0.1% PEG 8000, pH 8.0 and 20 μl Chromozym® X, U, PK and TH (0.5-40 mmol/l) were added to and measured against a reagent blank value in an ELISA reader at a wavelength of 405 nm and RT. The activity and the kinetic constants were determined from the linear initial slope according to the Michaelis Menten equation.
# [2] = Activity determination and kinetic constants with chromogenic substrate Chromozym U
# Description: as §1, §2
# [3] = Activity determination and kinetic constants with chromogenic substrate Chromozym X
# Description: as §1, §2
# [4] = Activity determination and kinetic constants with chromogenic substrate Chromozym TH
# Description: as §1, §2
substance,measurement,setting,value
"trypsin: native human trypsin (Sigma-Aldrich, Cat. No. T6424)",Km,[1],17 µM
same,kcat,[1],38 s⁻¹
same,Km,[2],208 µM
same,kcat,[2],225 s⁻¹
same,Km,[3],43 µM
same,kcat,[3],153 s⁻¹
same,Km,[4],13 µM
same,kcat,[4],95 s⁻¹
